Experimental data published in paper PMC6171537 (Biochemistry and Biophysics Reports, 2018).

Target: the molecule itself
Experiment: SEC-MALS

B1: LOV-HK (blue light-activated histidine kinase from Brucella abortus), construct 15-489 (enzyme)
chain: MALSQATDPFRAAVEFTLMPMLITNPHLPDNPIVFANPAFLKLTGYEADEVMGRNCRFLQGHGTDPAHVRAIKSAIAAEKPIDIDIINYKKSGEAFWNRLHISPVHNANGRLQHFVSSQLDVTLELSRLVELEKERKTLSIETARSKDQLDYIVEVANIGFWTREFYSGKMTCSAECRRIYGFTPDEPVHFDTILDLVVLEDRMTVVQKAHQAVTGEPYSIEYRIVTRLGETRWLETRAKALTGENPLVLGIVQDVTERKKAEANKALVSREIAHRFKNSMAMVQSIANQTLRNTYDPEQANRLFSERLRALSQAHDMLLKENWAGATIQQICATALAPFNSTFANRIHMSGPHLLVSDRVTVALSLAFYELATNAVKYGALSNEKGVINITWAIMEDKGEKKFHMRWAESRGPEVMQPARRGFGQRLLHSVLAEELKAKCDVEFAASGLLIDVLAPITPEVFPGMGHNVPEQRIA
notes: also called pET-24a-LOVHK-15-489
stoichiometry N: 2
